Measurements as given in doi:10.1101/2025.09.16.675330.

Assays:
Glu105 = experiment: UV-vis; settings: dark (ground) state, retinal-bound wild type; cited from earlier work
[1] = biological target: ChR024 (cation-conducting channelrhodopsin), full-length wild type, residues M1-T280; experiment: cryo-EM structure

Substance	pKa (Glu105)	stoichiometry N [1]
ChR024 (cation-conducting channelrhodopsin) (not stated (uncultured organism; sequence mined from a metagenomic database, identifier IMGM3300027749|Ga0209084_1026585|Ga0209084_10265853))	8.25	
ChR024 (cation-conducting channelrhodopsin), full-length wild type, residues M1-T280 (natural protein)		3
